Changes are numbered by the printed parent chain. Oligonucleotides are written 5' to 3', each unit as a sugar letter and its base; * is a phosphorothioate linkage, no mark a phosphodiester; rarer units and linkages stand in square brackets, end groups in braces. Plain capitals give the bases only. d = 2'-deoxy (DNA); r = 2'-OH (RNA); f = 2'-fluoro
B1: AMX200.G11: DNA SELEX 1 aptamer clone (nucleic acid)
DNA: CTACCTACGATCTGACTAGCGGAACGAGAATGCTGATGGATTGCTCAGGTCTGCTGGCTGCTTACTCTCATGTAGTTCC
modifications: DNA, backbone not given here
notes: DNA SELEX 1 aptamer clone
B2: AMX200.F9: DNA SELEX 1 aptamer clone (nucleic acid)
DNA: B1 DNA with C25T, A29G, C44G
modifications: DNA, backbone not given here
notes: DNA SELEX 1 aptamer clone
B3: AMX200.B1: DNA SELEX 1 aptamer clone (nucleic acid)
DNA: B1 DNA with C25T, T45C
modifications: DNA, backbone not given here
notes: DNA SELEX 1 aptamer clone
B4: AMX200.A7: DNA SELEX 1 aptamer clone (nucleic acid)
DNA: B1 DNA with C25T, C44T
modifications: DNA, backbone not given here
notes: DNA SELEX 1 aptamer clone
B5: AMX200.B9: DNA SELEX 1 aptamer clone (nucleic acid)
DNA: B1 DNA with C25T, G57A
modifications: DNA, backbone not given here
notes: DNA SELEX 1 aptamer clone
B6: AMX200.B8: DNA SELEX 1 aptamer clone (nucleic acid)
DNA: B1 DNA with C25T, C33T, A36G
modifications: DNA, backbone not given here
notes: DNA SELEX 1 aptamer clone
B7: AMX200.E8: DNA SELEX 1 aptamer clone (nucleic acid)
DNA: B1 DNA with C25T, A29G, A36G, C54T
modifications: DNA, backbone not given here
notes: DNA SELEX 1 aptamer clone
B8: AMX200.D11: DNA SELEX 1 aptamer clone (nucleic acid)
DNA: B1 DNA with C25T, G26A
modifications: DNA, backbone not given here
notes: DNA SELEX 1 aptamer clone
B9: AMX200.D1: DNA SELEX 1 aptamer clone (nucleic acid)
DNA: B1 DNA with C25T, A30G, G53A
modifications: DNA, backbone not given here
notes: DNA SELEX 1 aptamer clone
B10: AMX200.D8: DNA SELEX 1 aptamer clone (nucleic acid)
DNA: B1 DNA with C25T, C33T
modifications: DNA, backbone not given here
notes: DNA SELEX 1 aptamer clone
B11: AMX201.H4: rRfY aptamer clone (nucleic acid)
chain: rGrGrArGfCrGfCrAfCfUfCrArGfCfCrAfCfUrArAfCrGrGfUfUrGrAfUfCfUfCrArGrGrAfCfUrArAfUrArGfUfCrArAfCrArArGrGrAfUrGfCrGfUfUfUfCrGrAfCfCfUfCfUfCfUrGfCfUrArGfC
B12: AMX203.A6: rRdY aptamer clone (nucleic acid)
chain: rGrGrArGdCrGdCrAdCdTdCrArGdCdCrAdCdCrAdCrGrGrGrGrAdCrGrGrGdTrArGrGrGdCrGrGrGdCrGrArGrGdTrGrGdTrGrGdCrAdTdTrArGdCrGdTdTdTdCrGrAdCdCdTdCdTdCdTrGdCdTrArGdC
B13: AMX203.F9: rRdY aptamer clone (nucleic acid)
chain: rGrGrArGdCrGdCrAdCdTdCrArGdCdCrAdCdTrGrArArGrGrGdTrArArGrGrAdCrGrArGrGrArGrGrGdTrAdTrAdCrArGdTrGdTrGdCrGdCrGdTrGdTrAdTdTdTdCrGrAdCdCdTdCdTdCdTrGdCdTrArGdC
B14: AMX201.D4: rRfY aptamer clone (nucleic acid)
chain: rGrGrArGfCrGfCrAfCfUfCrArGfCfCrAfCfUrGrGrGrGfCfUrGrAfUfCfUfCrGfCrAfCrGrAfUrArGfUfUfCrGfUrGfUfCrArArGrGrAfUrGfCrGfUfUfUfUfCrGrAfCfCfUfCfUfCfUrGfCfUrArGfC
B15: AMX201.H11: rRfY aptamer clone (nucleic acid)
chain: rGrGrArGfCrGfCrAfCfUfCrArGfCfCrAfCfCfCfUrGfUfCrGfUfCfUfUfUfUrGrGfUrArGfUfCrArGfCfCrArArArArGfCfUrArGfUfUrGrGfUfUrGfUfUfUfCrGrAfCfCfUfCfUfCfUrGfCfUrArGfC
B16: AMX201.D3: rRfY aptamer clone (nucleic acid)
chain: rGrGrArGfCrGfCrAfCfUfCrArGfCfCrAfCrGfCfCfCrAfCrGfUfCrArArAfUfUrAfUrArGfUfCfUrAfCfUfUfUrGrAfUrGfUrGfCfCfCrGfUrGrGfUfUfUfCrGrAfCfCfUfCfUfCfUrGfCfUrArGfC
B17: AMX201.A8: rRfY aptamer clone (nucleic acid)
chain: rGrGrArGfCrGfCrAfCfUfCrArGfCfCrAfCrGfCfUrGfUrAfCrAfCfUrGrAfUrGfUfUrGfUrArAfCrAfUrGfUrAfCfCfCfCfCfUrGrGfCfUrGfUfUfUfCrGrAfCfCfUfCfUfCfUrGfCfUrArGfC
B18: AMX201.D10: rRfY aptamer clone (nucleic acid)
chain: rGrGrArGfCrGfCrAfCfUfCrArGfCfCrAfCrAfCfUrGrArGrGfCfUrGrGrAfUrAfUfCfUrAfCrGrArGrArGrGrArArGfUrGfCfUrGfCfUfUrGrGrAfUfUfUfCrGrAfCfCfUfCfUfCfUrGfCfUrArGfC
B19: AMX205.A7: rRdY aptamer clone (nucleic acid)
chain: rGrGrArGdCrGdCrAdCdTdCrArGdCdCrAdCdTdCrArArGrGrGrGrGdTdCrGdCrGdTrGrGrGrGrAdCrGrArArGrGrGdTdTrGdCrArGdTrGdTrGdTdCrGdTdTdTdCrGrAdCdCdTdCdTdCdTrGdCdTrArGdC
B20: AMX199.F10: DNA SELEX 1 aptamer clone (nucleic acid)
DNA: CTACCTACGATCTGACTAGCGAAACACTAGGTTGGTTAGGATTGGTGTGTTTCCGTTCTGCTTACTCTCATGTAGTTCC
modifications: DNA, backbone not given here
notes: DNA SELEX 1 aptamer clone
B21: AMX205.G9: rRdY aptamer clone (nucleic acid)
chain: rGrGrArGdCrGdCrAdCdTdCrArGdCdCrAdCrArAdCdTrGrGdTdTrGdTdCrGrGdTrGrAdTrGrGdCrAdTdTrArAdCrGdCrGrGrAdCdCrArGrGdCrAdTrGdTdTdTdCrGrAdCdCdTdCdTdCdTrGdCdTrArGdC

Key:
[1] = biological target: human vWF A1 domain (SEQ ID NO 5) (Homo sapiens, UniProt P04275, T1381A); experiment: 3-point dot blot screen, human vWF A1 domain; assay type: binding; details: 100 nM human vWF A1 domain
From the text: (§1) When a significant positive ratio of binding of RNA in the presence of human or rabbit vWF A1 domain versus in the absence of protein was seen, the pools were cloned using the TOPO TA cloning kit (Invitrogen, Cat. #45-0641, Carlsbad, Calif.) according to the manufacturer's instructions. Round 9 and 12 pool templates were cloned and sequenced (125 total sequences), producing 48 unique clones. All unique clones were transcribed, desalted, 5-^32P end-labeled, and assayed in a 3-point dot blot screen (no protein target control, 100 nM human vWF A1 domain (SEQ ID NO 5, FIG. 3), or 100 nM rabbit vWF A1 domain (SEQ ID NO 6, FIG. 3). The data is presented in the third and fourth columns of Table 4 below as the ratio of the fraction of the aptamer bound to the nitrocellulose in the presence of the target protein to the fraction of aptamer bound in the absence of the target protein.
(§2) When a significant positive ratio of binding of RNA in the presence of human or rabbit vWF A1 domain (SEQ ID NOS 4 and 6, respectively) versus in the absence of protein was seen, the pools were cloned using the TOPO TA cloning kit (Invitrogen Cat. #45-0641, Carlsbad, Calif.) according to the manufacturer's instructions. Round 9 and 12 pool templates were cloned and sequenced (185 total sequences), producing 78 unique clones within 3 sequence families. All unique clones were transcribed, desalted, 5-^32P end-labeled, and assayed in a 3-point dot blot screen (no protein target control, 100 nM human vWF A1 domain (SEQ ID NO 5), or 100 nM rabbit vWF A1 domain (SEQ ID NO 6). The data are presented in the third and fourth columns of Table 9 below as the ratio of the fraction of the aptamer bound to the nitrocellulose in the presence of the target protein to the fraction of aptamer bound in the absence of the target protein. Of the three sequence families, members of Family #1 and #2 and two individual, non-family aptamers, bound to both human vWF domain A1 (SEQ ID NO 5) and rabbit vWF domain A1 (SEQ ID NO 6).
(§3) All unique clones were assayed in a 3-point dot blot screen (no protein target control, 100 nM human vWF A1 domain (SEQ ID NO 5), or 100 nM rabbit vWF A1 domain (SEQ ID NO 6). The data are presented in the third and fourth columns of Table 14 below as the ratio of the fraction of the aptamer bound to the nitrocellulose in the presence of the target protein to the fraction of aptamer bound in the absence of the target protein.

[2] = system: rabbit vWF A1 domain (SEQ ID NO 6); experiment: 3-point dot blot screen, rabbit vWF A1 domain; assay type: binding; details: 100 nM rabbit vWF A1 domain, ratio of fraction bound with target to without
From the text: as §1, §2, §3
When a significant positive ratio of binding of DNA in the presence of human or rabbit vWF A1 domain versus in the absence of protein was seen, the pools were cloned using the TOPO TA cloning kit (Invitrogen Cat. #45-0641, Carlsbad, Calif.) according to the manufacturer's instructions. Round 7 and 11 pool templates were cloned and sequenced (218 total sequences), producing 146 unique clones within 12 sequence families of which sequences from six families show vWF target binding activity. All unique clones were assayed twice in a 3-point dot blot screen (no protein target control, 20 nM full length human vWF (Calbiochem Cat. #681300, La Jolla, Calif.), or 20 nM rabbit vWF A1 domain. The data is presented in the third and fourth columns of Table 17 below as the ratio of the fraction of the aptamer bound to the nitrocellulose in the presence of the target protein to the fraction of aptamer bound in the absence of the target protein.

[3] = DNA SELEX 1 aptamers, ratio of fraction bound with target to without
[4] = rRfY aptamers, ratio of fraction bound with target to fraction bound without target
[5] = rRdY aptamers, ratio of fraction bound with target to without

Chain of rabbit vWF A1 domain (SEQ ID NO 6) (as listed by the source): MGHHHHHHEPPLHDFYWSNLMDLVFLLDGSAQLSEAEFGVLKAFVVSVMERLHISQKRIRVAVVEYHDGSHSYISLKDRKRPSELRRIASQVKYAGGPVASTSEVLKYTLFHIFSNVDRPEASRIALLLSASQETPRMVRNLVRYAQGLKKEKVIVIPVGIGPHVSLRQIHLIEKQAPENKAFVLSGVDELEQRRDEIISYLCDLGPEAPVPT
Chain of human vWF A1 domain (SEQ ID NO 5) (P04275 with tags, fused parts or gaps T1381A): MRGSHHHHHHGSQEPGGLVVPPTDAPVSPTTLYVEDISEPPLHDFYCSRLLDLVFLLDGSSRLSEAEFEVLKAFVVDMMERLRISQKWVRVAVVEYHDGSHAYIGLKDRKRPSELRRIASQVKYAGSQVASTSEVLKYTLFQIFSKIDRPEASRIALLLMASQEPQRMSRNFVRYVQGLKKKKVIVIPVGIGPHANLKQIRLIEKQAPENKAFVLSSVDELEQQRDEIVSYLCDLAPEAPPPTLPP

Molecule | Screen- Human/No Protein [1, 3] | Screen- Rabbit/No Protein ([2]; DNA SELEX 1 aptamers) | other results
B1 | 1.73 | 1.28 | 
B2 | 0.97 | 0.99 | 
B3 | 4.01 | 3.01 | 
B4 | 0.97 | 0.96 | 
B5 | 2.54 | 2.06 | 
B6 | 4.13 | 3.13 | 
B7 | 1.04 | 1.03 | 
B8 | 3.34 | 2.04 | 
B9 | 1.26 | 1.06 | 
B10 | 2.86 | 1.61 | 
B11 |  |  | Screen- Human/No Protein [1, 4]: 1.79; Screen- Rabbit/No Protein ([2]; rRfY aptamers): 1.86
B12 |  |  | Screen- Human/No Protein [1, 5]: 1.16; Screen- Rabbit/No Protein ([2]; rRdY aptamers): 1.16
B13 |  |  | Screen- Human/No Protein [1, 5]: 1.45; Screen- Rabbit/No Protein ([2]; rRdY aptamers): 1.29
B14 |  |  | Screen- Human/No Protein [1, 4]: 2.23; Screen- Rabbit/No Protein ([2]; rRfY aptamers): 2.46
B15 |  |  | Screen- Human/No Protein [1, 4]: 1.75; Screen- Rabbit/No Protein ([2]; rRfY aptamers): 1.40
B16 |  |  | Screen- Human/No Protein [1, 4]: 1.76; Screen- Rabbit/No Protein ([2]; rRfY aptamers): 1.52
B17 |  |  | Screen- Human/No Protein [1, 4]: 1.82; Screen- Rabbit/No Protein ([2]; rRfY aptamers): 1.51
B18 |  |  | Screen- Human/No Protein [1, 4]: 1.59; Screen- Rabbit/No Protein ([2]; rRfY aptamers): 1.52
B19 |  |  | Screen- Human/No Protein [1, 5]: 1.24; Screen- Rabbit/No Protein ([2]; rRdY aptamers): 1.37
B20 | 1.17 | 1.24 | 
B21 |  |  | Screen- Human/No Protein [1, 5]: 1.30; Screen- Rabbit/No Protein ([2]; rRdY aptamers): 1.73
